# Experimental data as given in the supplement of paper PMC9112550, “Optimization of the antimicrobial peptide Bac7 by deep mutational scanning” (BMC Biology, 2022).
# Tested on: Escherichia coli TOP10
# Test: shrunken log2 fold change of peptide-encoding DNA abundance (4.5 h post-induction vs induction); higher = less antimicrobial activity (less host growth inhibition)
# Settings: time post-induction: 4.5 h; library: site-saturation at positions 5, 18, 19, 20
# 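Also: peptides expressed intracellularly from a pBAD plasmid library in pooled LB shake-flask culture, induced with 0.3% L-arabinose, DNA abundance read by NGS, three biological replicates, DESeq2 with apeglm shrinkage.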
row,Sequence,shrunken log2 fold change
1,RRIRCRPPRLPRPRPRPVTFPRP,-0.294
2,RRIRWRPPRLPRPRPRPMVGPRP,0.171
3,RRIRSRPPRLPRPRPRPWHPPRP,-0.125
4,RRIRYRPPRLPRPRPRPIRSPRP,-0.214
5,RRIRSRPPRLPRPRPRPVDDPRP,-0.14
6,RRIRMRPPRLPRPRPRPYWGPRP,-0.0296
7,RRIRKRPPRLPRPRPRPQLTPRP,0.14
8,RRIRSRPPRLPRPRPRPMGPPRP,-0.0846
9,RRIRDRPPRLPRPRPRPGPCPRP,0.244
10,RRIRKRPPRLPRPRPRPSKTPRP,0.0486
11,RRIRKRPPRLPRPRPRPRYMPRP,-0.334
12,RRIRWRPPRLPRPRPRPHIIPRP,-0.441
13,RRIRHRPPRLPRPRPRPMPNPRP,-0.0341
14,RRIRLRPPRLPRPRPRPSMRPRP,0.421
15,RRIRLRPPRLPRPRPRPCIGPRP,-0.147
16,RRIRARPPRLPRPRPRPTRGPRP,0.301
17,RRIRRRPPRLPRPRPRPEMNPRP,0.406
18,RRIRLRPPRLPRPRPRPIGFPRP,0.0709
19,RRIRIRPPRLPRPRPRPGCCPRP,-0.04
20,RRIRGRPPRLPRPRPRPRVDPRP,1.57
21,RRIRMRPPRLPRPRPRPFINPRP,-0.278
22,RRIRIRPPRLPRPRPRPHLSPRP,-0.0549
23,RRIRSRPPRLPRPRPRPWPCPRP,0.134
24,RRIRERPPRLPRPRPRPNISPRP,-1.14
25,RRIRFRPPRLPRPRPRPDKRPRP,-0.0786

row,Sequence,shrunken log2 fold change
1,RRIRHRPPRLPRPRPRPVTHPRP,-0.12
2,RRIRDRPPRLPRPRPRPEVLPRP,1.14
3,RRIRGRPPRLPRPRPRPWKYPRP,-0.115
4,RRIRFRPPRLPRPRPRPINCPRP,-0.257
5,RRIRFRPPRLPRPRPRPTDTPRP,-0.263
6,RRIRFRPPRLPRPRPRPDQKPRP,-0.0128
7,RRIRQRPPRLPRPRPRPHWWPRP,0.38
8,RRIRVRPPRLPRPRPRPMKYPRP,-0.0836
9,RRIRMRPPRLPRPRPRPCCQPRP,0.212
10,RRIRGRPPRLPRPRPRPIDVPRP,0.0296
11,RRIRQRPPRLPRPRPRPHFVPRP,-0.208
12,RRIRQRPPRLPRPRPRPCEQPRP,-0.105
13,RRIRPRPPRLPRPRPRPMNEPRP,-0.0529
14,RRIRQRPPRLPRPRPRPVTTPRP,0.0606
15,RRIRQRPPRLPRPRPRPQWSPRP,0.282
16,RRIRWRPPRLPRPRPRPRQNPRP,0.448
17,RRIRLRPPRLPRPRPRPLKMPRP,1.29
18,RRIRGRPPRLPRPRPRPWKKPRP,-0.00973
19,RRIRRRPPRLPRPRPRPKPCPRP,0.126
20,RRIRSRPPRLPRPRPRPHWTPRP,-0.0566
21,RRIRSRPPRLPRPRPRPVCSPRP,0.0822
22,RRIRNRPPRLPRPRPRPNVLPRP,-0.178
23,RRIRSRPPRLPRPRPRPSSFPRP,-0.356
24,RRIRTRPPRLPRPRPRPIFHPRP,-0.204
25,RRIRMRPPRLPRPRPRPDRLPRP,0.55
